{"source": "patent US20080050361A1", "about": "“STAP[…] […] ANTI-INFECTIVES” (priority 2004, published 2008)", "molecules": {"B1": {"name": "IsdA: full length (excluding signal peptide and C-terminal sorting sequences) IsdA, amino acids 48-316, GST fusion expressed in E. coli (protein, listed as Staphylococcus aureus)", "chain": "TEATNATNNQSTQVSQATSQPINFQVQKDGSSEKSHMDDYMQHPGKVIKQNNKYYFQTVLNNASFWKEYKFYNANNQELATTVVNDNKKADTRTINVAVEPGYKSLTTKVHIVVPQINYNHRYTTHLEFEKAIPTLADAAKPNNVKPVQPKPAQPKTPTEQTKPVQPKVEKVKPTVTTTSKVEDNHSTKVVSTDTTKDQTKTQTAHTVKTAQTAQEQNKVQTPVKDVATAKSESNNQAVSDNKSQQTNKVTKHNETPKQASKAKELPKT", "modifications": "GST fusion"}}, "assay": "Heme binding by native and mutant forms of GST-IsdA (electronic spectra, A407/A280)", "details": "GST-IsdA fusion proteins as expressed and isolated from E. coli; heme scavenged from E. coli cytoplasm; room temperature", "method": "Wild type and point mutant proteins were purified as expressed from E. coli and relative heme binding was assessed based upon the ability of the proteins, all expressed in an equivalent fashion, to scavenge and retain association with heme derived from the cytoplasm of E. coli Proteins were adjusted to an equivalent concentration and electronic spectra were recorded using a Cary 500 spectrophotometer (Varian Inc.) with a 1 cm path length and 1 mL quartz cuvettes. All recordings were taken at room temperature.", "data": [{"molecule": "B1", "values": [{"measurement": "A407/A280 ratio", "value": 0.629}]}]}
